Results: patent US5679770A, “Polypeptide, DNA fragment encoding the same, drug composition containing the same and process for producing the same” (Mochida Pharmaceutical Co., Ltd., priority 1991, dated 1997)

T1: Bovine trypsin (Bos taurus, UniProt P00760)
T1 construct: purchased Sigma Chemical Co. Type XIII
T1 sequence (P00760 24-246): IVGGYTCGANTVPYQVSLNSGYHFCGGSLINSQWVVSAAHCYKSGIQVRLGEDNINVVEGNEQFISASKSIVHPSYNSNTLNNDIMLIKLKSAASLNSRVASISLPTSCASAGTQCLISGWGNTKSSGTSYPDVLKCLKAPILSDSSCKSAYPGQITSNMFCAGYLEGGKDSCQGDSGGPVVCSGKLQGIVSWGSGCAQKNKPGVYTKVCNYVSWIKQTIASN

T2: Human neutrophil elastase (Homo sapiens, UniProt P08246)
T2 construct: purchased CALBIOCHEM
T2 sequence (P08246 30-267): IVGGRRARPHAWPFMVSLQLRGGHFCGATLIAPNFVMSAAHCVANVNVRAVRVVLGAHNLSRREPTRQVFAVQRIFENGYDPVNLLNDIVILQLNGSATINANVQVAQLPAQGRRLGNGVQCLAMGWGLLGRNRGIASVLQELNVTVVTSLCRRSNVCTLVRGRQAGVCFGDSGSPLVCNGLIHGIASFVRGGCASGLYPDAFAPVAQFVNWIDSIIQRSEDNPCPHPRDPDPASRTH


What was measured:
Assay type in all cases: biochemical
[1] = target: T1, Bovine trypsin; test: Bovine trypsin-inhibiting activity (synthetic substrate S-2444); details: purified polypeptide, serially diluted
Experimental: The purified polypeptide of the present invention was dissolved in 100 μl of distilled water, and the solution was serially diluted with a 0.1% BSA/0.2M triethanolamine-HCl buffer (pH 7.8) for use in the activity measurement. Measurement of the trypsin-inhibiting activity in the thus prepared test sample was carried out in accordance with the Kassell's method (Kassell, B. et al., Methods in Enzymology, vol.19, pp.844-852, 1970) using a synthetic substrate S-2444 (Daiichi Pure Chemicals Co., Ltd.).
Bovine trypsin (Type XIII, Sigma Chemical Co.) was dissolved in 0.001M HCl to a final concentration of 13,600 BAEEU/ml and the solution was further diluted with 0.1% BSA/0.2M triethanolamine-HCl buffer (pH 7.8) to prepare 1.2 BAEEU/ml of trypsin solution. Separately from this, 2 mM solution of the synthetic substrate S-2444 was prepared by dissolving it in distilled water. Next, 100 μl of the test sample was mixed with 100 μl of the trypsin solution. After incubating statically at 37° C. for 10 minutes, 50 μl of the S-2444 solution was added to start the reaction. The reaction was carried out at 37° C. for 15 minutes and then stopped by adding 50 μl of 50% acetic acid solution to the reaction mixture. Thereafter, absorbance at a wavelength of 405 nm was measured using a spectrophotometer. In this instance, in order to eliminate absorbancy of various contents in the reaction mixture other than the reaction product, a blank solution was prepared by mixing 100 μl of the bovine trypsin solution with 50 μl of 50% acetic acid and then with 100 μl of each test sample and 50 μl of the S-2444 solution.

[2] = target: T2, Human neutrophil elastase; test: Human elastase-inhibiting activity (substrate STANA); details: for elastase-inhibiting activity, times higher than that of polypeptide Q19K/Y46D: relative to Q19K/Y46D; for elastase-inhibiting activity, times higher than that of polypeptide AN68: relative to control AN68
Experimental: The purified polypeptide of the present invention was dissolved in 100 μl of distilled water. The concentration of this solution was determined based on its bovine trypsin-inhibiting activity using UTI as a standard. The solution was then diluted to various concentration levels with 0.1% BSA/27 mM CaCl2 /133 mM Tris-HCl buffer (pH 7.5) for use in the activity measurement. The aforementioned AN68 was also diluted in the same manner for use as a control. Human elastase-inhibiting activities in the test samples and the control were measured in accordance with the method of Ogawa et al. (Ogawa, M. et al., Res. Commun. Chem. Pathol. Pharmacol., vol.55, pp.271-274, 1987) using a synthetic compound STANA (Peptide Institute Inc.) as a substrate.
Human neutrophil elastase (CALBIOCHEM) was dissolved in 27 mM CaCl2 /133 mM Tris-HCl buffer (pH 7.5) to a concentration of 100 μg/ml and the solution was further diluted with 0.1% BSA/27 mM CaCl2 /133 mM Tris-HCl buffer (pH 7.5) to prepare a 4 μg/ml elastase solution. 100 mM STANA solution was prepared by dissolving it in N-methyl-2-pyrrolidone and the solution was further diluted with 0.1% BSA/27 mM CaCl2 /133 mM Tris-HCl buffer (pH 7.5) to prepare a 20 mM STANA solution.
Next, 50 μl of the test sample or positive control was mixed with 50 μl of the elastase solution and 50 μl of 0.1% BSA/27 mM CACl2 /133 mM Tris-HCl buffer (pH 7.5). After incubation at 37° C. for 10 minutes, 50 μl of the STANA solution was added to the mixture to start the reaction. The reaction was carried out at 37° C. for 20 minutes and then stopped by adding 50 μl of 50% acetic acid solution to the reaction mixture. Thereafter, absorbance at a wavelength of 405 nm was measured using a spectrophotometer. In this instance, in order to eliminate absorbance of various solutions in the reaction product, a blank solution was prepared by mixing 50 μl of the elastase solution with 50 μl of 50% acetic acid and then with 50 μl of each test sample or the control, 50 μl of 0.1% BSA/27 mM CaCl2 /133 mM Tris-HCl buffer (pH 7.5) and with 50 μl of the STANA solution.
The results are shown in FIG. 54 and FIG. 55 and FIG. 67 to FIG. 69. In these figures, polypeptide concentration in the reaction solution is expressed as its bovine trypsin-inhibiting activity. Also, remaining human elastase activity was expressed by percentage based on the absorbance of a control reaction mixture in which 50 μl of the 0.1% BSA/27 mM CaCl2 /133 mM Tris-HCl buffer (pH 7.5) was used instead of the test sample or the control.

[3] = target: T3, human trypsin (Homo sapiens, UniProt P07477); test: Human trypsin-inhibiting activity (synthetic substrate S-2444); details: purified polypeptide, various concentration levels
T3 construct: purchased Calbiochem
Experimental: The purified polypeptide of the present invention was dissolved in 100 μl of distilled water. Concentration of polypeptide in the thus prepared solution was determined based on its bovine trypsin-inhibiting activity measured in accordance with the above procedure (1) using UTI (Mochida Pharmaceutical Co., Ltd.; cf. H. Ohnishi et al., Nippon Yakurigaku Zasshi, vol.85, pp.1-6, 1985) as a standard. The polypeptide solution was then diluted to various concentration levels with 0.03% BSA/0.2M triethanolamine-HCl buffer (pH 7.8) for use in the activity measurement. Separately from this, human trypsin (Calbiochem) was dissolved in 1 mM HCl to a concentration of 1,000 SU/ml and the solution was further diluted with the 0.03% BSA/0.2M triethanolamine-HCl buffer (pH 7.8) to prepare a 1.25 SU/ml solution of human trypsin. Thereafter, human trypsin-inhibiting activity was measured in the same manner as described in the above procedure (1) using the aforementioned synthetic substrate S-2444. Separately from this, polypeptide AN68 (sequence described in Example 17(3)) was diluted to various concentration levels. Thereafter, human trypsin-inhibiting activity was measured in the same manner as described in the above procedure (1) and compared with the trypsin-inhibiting activity of the novel polypeptide of the present invention.

Molecule | elastase-inhibiting activity, times higher than that of polypeptide Q19K/Y46D [2] | elastase-inhibiting activity, times higher than that of polypeptide AN68 [2] | elastase-inhibiting activity, times higher than that of polypeptide Q19K/Y46E ([2]; relative to Q19K/Y46E from E. coli JE5505(pM721)) | bovine trypsin inhibition [1] | human trypsin inhibition [3]
R11S/Q19K/Y46D: formula 1 sequence with Ser for position 7 Arg, Lys for position 15 Gln, Asp for position 42 Tyr; SEQ. I.D. NO. 42 (protein) AACNLPIVSGPCRAFIKLWAFDAVKGKCVLFPYGGCQGNGNKFDSEKECREYCGVPGDGDEELLRFSN | about 10 times | about 10 times |  | can inhibit bovine trypsin in a concentration-dependent manner | can inhibit human trypsin in a concentration-dependent manner
R11D/Q19K/Y46D: formula 1 sequence with Asp for position 7 Arg, Lys for position 15 Gln, Asp for position 42 Tyr; SEQ. I.D. NO. 38 (protein) AACNLPIVDGPCRAFIKLWAFDAVKGKCVLFPYGGCQGNGNKFDSEKECREYCGVPGDGDEELLRFSN | about 3 times | about 3 times |  | can inhibit bovine trypsin in a concentration-dependent manner | can inhibit human trypsin in a concentration-dependent manner
R11L/Q19K/Y46D: formula 1 sequence with Leu for position 7 Arg, Lys for position 15 Gln, Asp for position 42 Tyr; SEQ. I.D. NO. 39 (protein) AACNLPIVLGPCRAFIKLWAFDAVKGKCVLFPYGGCQGNGNKFDSEKECREYCGVPGDGDEELLRFSN | about 2 times | about 2 times |  | can inhibit bovine trypsin in a concentration-dependent manner | can inhibit human trypsin in a concentration-dependent manner

Now from value to molecule, other results behind:

elastase-inhibiting activity, times higher than that of polypeptide Q19K/Y46D [2] | elastase-inhibiting activity, times higher than that of polypeptide AN68 [2] | elastase-inhibiting activity, times higher than that of polypeptide Q19K/Y46E ([2]; relative to Q19K/Y46E from E. coli JE5505(pM721)) | Molecule | bovine trypsin inhibition [1] | human trypsin inhibition [3]
about 3 times | about 3 times |  | R11Q/Q19K/Y46D: formula 1 sequence with Gln for position 7 Arg, Lys for position 15 Gln, Asp for position 42 Tyr; SEQ. I.D. NO. 37 (protein) AACNLPIVQGPCRAFIKLWAFDAVKGKCVLFPYGGCQGNGNKFDSEKECREYCGVPGDGDEELLRFSN | can inhibit bovine trypsin in a concentration-dependent manner | can inhibit human trypsin in a concentration-dependent manner
about 5 times | about 5 times |  | R11N/Q19K/Y46D: formula 1 sequence with Asn for position 7 Arg, Lys for position 15 Gln, Asp for position 42 Tyr; SEQ. I.D. NO. 41 (protein) AACNLPIVNGPCRAFIKLWAFDAVKGKCVLFPYGGCQGNGNKFDSEKECREYCGVPGDGDEELLRFSN | can inhibit bovine trypsin in a concentration-dependent manner | can inhibit human trypsin in a concentration-dependent manner
about 4 times | about 4 times |  | R11A/Q19K/Y46D: formula 1 sequence with Ala for position 7 Arg, Lys for position 15 Gln, Asp for position 42 Tyr; SEQ. I.D. NO. 43 (protein) AACNLPIVAGPCRAFIKLWAFDAVKGKCVLFPYGGCQGNGNKFDSEKECREYCGVPGDGDEELLRFSN | can inhibit bovine trypsin in a concentration-dependent manner | can inhibit human trypsin in a concentration-dependent manner
 | about 5 times | 6 times | R11E/Q19K/Y46E: formula 1 sequence with Glu for position 7 Arg, Lys for position 15 Gln, Glu for position 42 Tyr; SEQ. I.D. NO. 40 (protein) AACNLPIVEGPCRAFIKLWAFDAVKGKCVLFPYGGCQGNGNKFESEKECREYCGVPGDGDEELLRFSN | can inhibit bovine trypsin in a concentration-dependent manner | can inhibit human trypsin in a concentration-dependent manner
